Assay results as given in PMC5109244, “A pH‐ and ionic strength‐dependent conformational change in the neck region regulates DNGR‐1 function in dendritic cells” (The EMBO Journal, 2016).

Target: the molecule itself
Assay: non-reducing SDS-PAGE and Western blot; supernatants of 293F cells with FLAG-tagged ECD proteins, Laemmli buffer without reducing agent, HRP-conjugated anti-FLAG detection

B1: human DNGR-1 ECD (extracellular domain of human DNGR-1) (domain or fragment)
chain: not shown
modifications: glycosylated (mobility augmented by PNGase F)
notes: human DNGR-1 (CLEC9A), single isoform, extracellular domain K57–V241; Disulfide-bonded homodimer; also called human ECD; human isoform; source: 293F cells, transient transfection
  stoichiometry N: 2
